Results published in US20020031818A1 (published 2002).

Molecular target: GST-Mdm2, wild type, bacterially expressed and purified (pGEX-4T-1) (human, UniProt Q00987 1-491)
Assay: cell-based or functional assay

Chain of GST-Mdm2, wild type, bacterially expressed and purified (pGEX-4T-1) (Q00987 whole entry): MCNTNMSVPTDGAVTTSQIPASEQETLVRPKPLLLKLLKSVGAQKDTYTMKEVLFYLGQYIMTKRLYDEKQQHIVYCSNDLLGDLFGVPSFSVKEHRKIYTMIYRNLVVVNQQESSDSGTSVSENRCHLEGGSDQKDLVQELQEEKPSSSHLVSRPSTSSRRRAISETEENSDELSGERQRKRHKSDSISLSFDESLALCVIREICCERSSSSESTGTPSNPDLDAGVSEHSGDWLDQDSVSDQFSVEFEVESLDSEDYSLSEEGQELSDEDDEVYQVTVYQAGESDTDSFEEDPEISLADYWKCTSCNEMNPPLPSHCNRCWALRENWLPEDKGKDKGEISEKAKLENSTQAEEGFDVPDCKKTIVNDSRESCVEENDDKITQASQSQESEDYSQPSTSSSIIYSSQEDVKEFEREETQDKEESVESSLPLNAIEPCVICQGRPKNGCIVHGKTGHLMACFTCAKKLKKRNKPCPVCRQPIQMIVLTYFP

- molar ratio required for inhibition of Mdm2 sumoylation: ~1 molar ratio p19^ARF:Mdm2
B1: p19^ARF, wild type (other, UniProt Q64364 1-169, looked up)
chain: MGRRFLVTVRIQRAGRPLQERVFLVKFVRSRRPRTASCALAFVNMLLRLERILRRGPHRNPGPGDDDGQRSRSSSSAQLRCRFELRGPHYLLPPGARRSAGRLPGHAGGAARVRGSAGCARCLGSPAARLGPRAGTSRHRAIFAFRWVLFVFRWVVFVYRWERRPDRRA
